From US20220125962A1

Columns and labels:
[1] = molecular target: human CD33 antigen (human) (UniProt P20138); assay: immunoreactivity of the radiolabeled HuM195-DOTA conjugate, Preparation 2; format not described
[2] = molecular target: human CD33 antigen (human) (UniProt P20138); assay: immunoreactivity of the radiolabeled HuM195-DOTA conjugate, Preparation 1; format not described

| Immunoreactivity (%) [1] | Immunoreactivity (%) [2] | Molecule |
| --- | --- | --- |
| 82% | 72.2% | ^225Ac-HuM195 (HuM195-DOTA conjugate labeled with thorium cow-generated ^225Ac) (antibody) |
| 83% | 65.4% | ^225/7Ac-HuM195 (HuM195-DOTA conjugate labeled with linac/accelerator-generated ^225Ac containing a molar excess of ^227Ac) (antibody, INN chains, looked up, V domains shown, DOTA conjugate labelled with 225Ac/227Ac) VH: QVQLVQSGAEVKKPGSSVKVSCKASGYTFTDYNMHWVRQAPGQGLEWIGYIYPYNGGTGYNQKFKSKATITADESTNTAYMELSSLRSEDTAVYYCARGRPAMDYWGQGTLVTVSS VL: DIQMTQSPSSLSASVGDRVTITCRASESVDNYGISFMNWFQQKPGKAPKLLIYAASNQGSGVPSRFSGSGSGTDFTLTISSLQPDDFATYYCQQSKEVPWTFGQGTKVEIK |
